Data published in publication PMC12105186 (Cell Communication and Signaling : CCS, 2025).
Several values for one entry are separate records, joined by “and”; a condition that tells them apart may be missing. Equal values may be shown once.

B1: full-length human retinoid X receptor γ (hRXRγ) (receptor, UniProt P48443 1-463, looked up)
chain: MYGNYSHFMKFPAGYGGSPGHTGSTSMSPSAALSTGKPMDSHPSYTDTPVSAPRTLSAVGTPLNALGSPYRVITSAMGPPSGALAAPPGINLVAPPSSQLNVVNSVSSSEDIKPLPGLPGIGNMNYPSTSPGSLVKHICAICGDRSSGKHYGVYSCEGCKGFFKRTIRKDLIYTCRDNKDCLIDKRQRNRCQYCRYQKCLVMGMKREAVQEERQRSRERAESEAECATSGHEDMPVERILEAELAVEPKTESYGDMNMENSTNDPVTNICHAADKQLFTLVEWAKRIPHFSDLTLEDQVILLRAGWNELLIASFSHRSVSVQDGILLATGLHVHRSSAHSAGVGSIFDRVLTELVSKMKDMQMDKSELGCLRAIVLFNPDAKGLSNPSEVETLREKVYATLEAYTKQKYPEQPGRFAKLLLRLPALRSIGLKCLEHLFFFKLIGDTPIDTFLMEMLETPLQIT
B2: deletion mutant of human RXRγ lacking the AB region (ΔABhRXRγ) (domain or fragment, UniProt P48443 128-463, looked up)
chain: STSPGSLVKHICAICGDRSSGKHYGVYSCEGCKGFFKRTIRKDLIYTCRDNKDCLIDKRQRNRCQYCRYQKCLVMGMKREAVQEERQRSRERAESEAECATSGHEDMPVERILEAELAVEPKTESYGDMNMENSTNDPVTNICHAADKQLFTLVEWAKRIPHFSDLTLEDQVILLRAGWNELLIASFSHRSVSVQDGILLATGLHVHRSSAHSAGVGSIFDRVLTELVSKMKDMQMDKSELGCLRAIVLFNPDAKGLSNPSEVETLREKVYATLEAYTKQKYPEQPGRFAKLLLRLPALRSIGLKCLEHLFFFKLIGDTPIDTFLMEMLETPLQIT

Experiments:
[1] = target: N-terminally 6×His-tagged AB region of hRXRγ (human); assay: MST
AUC = target: the molecule itself; assay: AUC
SEC-MALS = target: the molecule itself; assay: SEC-MALS

Row | Molecule | Kd [1] | stoichiometry N (AUC) | stoichiometry N (SEC-MALS)
1 | deletion mutant of human RXRγ lacking the AB region (ΔABhRXRγ) (from UniProt P48443 128-463) (domain or fragment) | 11.1 µM |  | 
2 | B1 |  | 5 | 
3 | B2 |  | 2 and 6 | 4
